One substance from article PMC8113726 can be followed below.

The experiment concerns the target Xenopus cyclase-associated protein 1 (XCAP1) (X. laevis (endogenous in oocytes)). Put plainly: SEC-MALS + AUC; purified native XCAP1-actin complex; SEC-MALS on SRT SEC-300 in PBS pH 7.2, 0.02% NaN3, 20 °C; sedimentation velocity at 40,000 rpm, 20 °C. Background: In gel filtration, larger molecules generally elute earlier.

Usually stoichiometry N stands for a count of units in the complex or per binding partner. Consider “Xenopus cyclase-associated protein 1 (XCAP1) (natural protein)”, for which the stoichiometry N was found to be 4.
